Reference: patent publication US20050042205A1

Target: rat luteal LH/CG receptor (LH/CG-R) expressed from the cloned cDNA (expression vector pCLHR) in transiently transfected human kidney 293 cells (rat) (UniProt P16235)

EC50 of cAMP production: 0.04 to 0.08 nM
Substance: human choriogonadotropin, highly purified (CR-123; 12,780 IU/mg) (from UniProt P01215) (ligand)
